Experimental data reported in the supplement of paper PMC12042874.
± gives the uncertainty stated by the source.

assay: amyloid nucleation score (Sup35N fusion, yeast selection) (log enrichment); library NNK2; higher = more nucleation; inactive = no reads after selection
Outline: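 DiMSum was used to calculate nucleation scores as log enrichment of output over input reads, centred on the mode score of non-aggregating sequences. Sequences with fewer than 100 input reads were not scored. Input and output came from Illumina sequencing of plasmid inserts in psi-negative yeast expressing peptides of 20 random codons fused to Sup35N, induced 24 hours with 100 μM copper sulfate and then grown 7 days at 30°C on medium lacking adenine and uracil.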

| Substance | amyloid nucleation score |
| --- | --- |
| VRLCKYENSSWLSFRFQVQG | 0.56 ± 0.39 |
| VRLLSFEINSWWLCACCRSV | 7 ± 0.076 |
| VRLPLIVYLKSAYTSPPWGS | -0.702 ± 1.1 |
| VRLSWCNMFNRVFPI | 0.3 ± 0.8 |
| VRMSSRRS | 1.24 ± 0.36 |
| VRNGMANKGNDGRAAWEVNG | 1.25 ± 0.21 |
| VRNSCSTLLYASVESVFWI | 3.28 ± 0.048 |
| VRQYPSTVPSLWLYVGSRH | 4.19 ± 0.069 |
| VRRMRG | 1.18 ± 0.42 |
| VRSLN | 0.058 ± 0.6 |
| VRWTTFRECWAGYGGYVIGR | 1.19 ± 0.17 |
| VRYDGSKAFEVYMNQIENGS | -0.905 ± 0.33 |
| VRYFGDILFMSALYNLAGFA | inactive |
| VSAGVTREGLEVGTVFGP | 0.379 ± 0.44 |
| VSAGWSTST | 3 ± 0.09 |
| VSDACRLDYLLAHILELGSM | -1.08 ± 0.78 |
| VSHRG | 2.37 ± 0.076 |
| VSIVRYIFSPNWFVTIASIY | -1.51 ± 0.49 |
| VSKLNLLNIHCAKPFLLEL | 3.38 ± 0.13 |
| VSLLNGYGAHSDMSAVGRRR | 0.649 ± 0.47 |
| VSLNCKRRALMTWYVKGLFG | -0.073 ± 0.22 |
| VSNPSSQMNC | 0.042 ± 0.16 |

| Substance | amyloid nucleation score |
| --- | --- |
| VSNYMIVKIQWFHIVVGPGL | 5.598 ± 0.031 |
| VSPALK | -0.055 ± 1.1 |
| VSRII | inactive |
| VSSHNCWFFRGSGWFLFHHW | inactive |
| VSSPLAWKFLVNKICISDGG | inactive |
| VSTILYLDY | 0.218 ± 1.1 |
| VSTTLTCEMLSVAVLFT | 0.886 ± 0.3 |
| VSVVFNARPHRDSHNPSAER | 6.129 ± 0.054 |
| VSVWYGGLVRVRSTWCKIKF | 1.13 ± 0.13 |
| VSYPVCMGKWHGSTRILNRH | 0.669 ± 0.27 |
| VSYVYVKGFGVWFLCTCSPR | 5.74 ± 0.072 |
| VTAAIIVFCNGVLVRWTFIM | -0.99 ± 1 |
| VTCCVTSEWVGFLDWWSDRQ | 10.13 ± 0.043 |
| VTDYYYLCKFKSRVP | -0.799 ± 0.78 |
| VTFCMQVRAG | 0.524 ± 0.33 |
| VTFFTAFLTFVYCCMMLMYM | 7.32 ± 0.078 |
| VTGDMTLFAWNLMGA | 0.625 ± 0.43 |
| VTGNKEVMKIRCWVAHEESD | 1.32 ± 0.37 |
| VTIIVLPANVMLMWVFCYMY | -0.93 ± 0.78 |
| VTNSVSHIVDCCAHSERVWV | 0.111 ± 0.39 |
| VTPDLDCLRDNDMVCGGPDQ | 0.171 ± 0.23 |
| VTRPMDDTRVRVSNCVDWII | 0.511 ± 0.38 |

| Substance | amyloid nucleation score |
| --- | --- |
| VTSICNPDVIMEEKLGDNRG | -0.416 ± 0.28 |
| VTVCC | 1.69 ± 0.2 |
| VTVNE | 0.711 ± 0.21 |
| VTYFTILNHMCW | 6.602 ± 0.04 |
| VTYLMCLWAGVARG | -0.324 ± 1.1 |
| VTYWFLLHNIRRLPRYIWLR | -0.664 ± 0.48 |
| VVAFRMSSDNAHSHDLPVPW | 5.59 ± 0.073 |
| VVAVVPYFN | -0.202 ± 1.1 |
| VVCEASTCDMLESEWFWAEF | 0.226 ± 0.23 |
| VVDTGFQRTGKSWIINDRGM | 0.253 ± 0.14 |
| VVDTMNFNYCVVCSLRSVWQ | 10.5 ± 0.058 |
| VVFTGWYHEGWRVV | 0.914 ± 0.18 |
| VVGFSMFYKWDMNSMVSRMS | 2.27 ± 0.084 |
| VVGTPCL | 0.542 ± 0.41 |
| VVHQVSVGHCWVSR | 0.683 ± 0.21 |
| VVNCCGWMVPVGPSHW | 10.32 ± 0.035 |
| VVRAFTDKPRSVSDSLGVIN | 1.16 ± 0.18 |
| VVRVFLKGSSCGSLEAFDYV | 2.86 ± 0.19 |
| VVWARYSVNLWMNLGSQASF | 4.01 ± 0.1 |
| VVWSN | 0.845 ± 0.29 |
| VVYPCFSIMLQMEVLYIVFI | 1.33 ± 0.33 |
| VVYRLDFRPFNSPPCMRSAS | 0.074 ± 0.32 |

| Substance | amyloid nucleation score |
| --- | --- |
| VWLALEWVLGWSTMR | 1.73 ± 0.19 |
| VWLCHSVNHIAISNE | 1.12 ± 0.45 |
| VWMYITSW | -1.12 ± 0.55 |
| VWTES | 1.83 ± 0.25 |
| VWVPQSVIRSLHLPSN | -1.01 ± 1.1 |
| VWWVAFYSGTKI | 0.019 ± 1.1 |
| VWYITIYIWGMRRLIAWRMS | 0.31 ± 0.74 |
| VWYLFKNAFHMVFKTEWYEG | -1.52 ± 0.54 |
| VYATFPSTIYLMLVFMESGV | inactive |
| VYCFSAFLGQ | 3.63 ± 0.082 |
| VYCVGNMSLGGLMDNCWYAG | 4.41 ± 0.062 |
| VYEKVVLGKDFVM | -0.28 ± 0.79 |
| VYFMCLWGFI | -0.453 ± 1.1 |
| VYFSSSIADKFYNLISVRFI | 0.833 ± 0.8 |
| VYGPTVNFK | 0.761 ± 0.25 |
| VYIAAHTCIC | 4.93 ± 0.079 |
| VYIILSFSIGMGEFNMISGG | -0.587 ± 0.79 |
| VYIIVFRIWLPLHFWSSTLM | -0.354 ± 0.56 |
| VYKYNISFLEPKHESQAWNK | 0.042 ± 0.63 |
| VYLVRKWRSGWRYLTRVI | 1.24 ± 0.41 |
| VYMHASCSERSMDESRNRVD | inactive |
